Biological target: MT1-MMP cytoplasmic tail peptide (MMP-CTP) (Homo sapiens, Fe(II)-bound)
Experiment: ITC

B1: acireductone dioxygenase (Fe-HsARD) (protein)
chain: MVQAWYMDDAPGDPRQPHRPDPGRPVGLEQLRRLGVLYWKLDADKYENDPELEKIRRERNYSWMDIITICKDKLPNYEEKIKMFYEEHLHLDDEIRYILDGSGYFDVRDKEDQWIRIFMEKGDMVTLPAGIYHRFTVDEKNYTKAMRLFVGEPVWTAYNRPADHFEARGQYVKFLAQTA
Kd: ~10 µM

— article PMC7768908 (2020)
